B1: LINE1-full (parent)
chain: UACGUAGGUGGUUUUCCCCUGAUAGUGCUAAGGGGGCCUGGAAGUUUGGACUGGGCAGAGCUCAACACAGCGUGGCAAAGUGGCUGUGGCUAGACUGCCUCUCUGGAUUCCUCGUCACUCAGCAGGGCAUCUCUGAGAGAAAUGCC

Variants of B1 are the subject of this series. The series is described as follows: self-cleavage, relative activity (ratio to wild type); higher = more cleavage; in vitro, sequencing; the parent is a self-cleaving ribozyme.
For the variant A43G A92U, the self-cleavage came to 0.92.
As for A42U A77U, the self-cleavage amounted to 0.83.
With A42U A77G, the self-cleavage was determined as 1.72.
As for A43U U46A, the figure is 1.24; as for A43C A94G, 0.66.
Turning to A43G U47C, the self-cleavage worked out at 1.31.
As for A43G A142C, the figure is 1; as for G44A A94U, 0.
The result for G44A A94G reads 0.27; that for A42U C113A, 0.98; that for A43U A67G, 0.56.
A42G U45G: the self-cleavage turned out to be 0.1.
On to A42G U45A, for which the self-cleavage came to 1.4.
The result for A43G C111U reads 0.93; that for A43G A117C, 1.85; that for G44C A117U, 1.53.
Regarding U45C A59C, the self-cleavage amounted to 0.79.
The result for U45C A59U reads 1.04; that for U45A G139A, 1.33; that for A43G C84U, 0.16.
With A43U U134C, the self-cleavage came out at 1.26.
As for A43G C90A, the figure is 0.07.
The result for A42G G144U reads 1.65.
The result for A42G U132A reads 1.8; that for A42G U132C, 1.48; that for A43G C76U, 1.66.
In the case of A43G A79G, the self-cleavage came out at 0.97.
As to A43G A79U, the self-cleavage was 1.8.
The result for A43U G49A reads 1.34; that for A43G A94G, 0.36.
The result for U45A U73A reads 1.91; that for U45A U73C, 1.32; that for A42U A142G, 0.88.
The result for A43G G82A reads 1.31; that for A42U A64G, 0.14.
In the case of A42G U134G, the self-cleavage stood at 1.68.
The result for A42G U134A reads 0.93; that for U45A A57C, 0.14.
As for A42U U143C, the figure is 0.94; as for A43G U143G, 1.42; as for A43G U143C, 1.36.
With G44A A50U, the self-cleavage worked out at 0.94.
For the variant A43U A138G, the self-cleavage is 0.83.
A43U A138U: the self-cleavage turned out to be 1.14.
For A43G U96A, the self-cleavage came out at 0.07.
For A42U G89U, the self-cleavage came to 0.04.
As for A43G A124U, the self-cleavage is 1.38.
The result for A43G A124C reads 1.96; that for A43G A124G, 1.05; that for U45A C51G, 1.44.
As to A43G G74A, the self-cleavage was determined as 1.17.
As for A42U A129G, the figure is 1.34; as for A42U A129U, 0.86; as for A43C C66U, 0.04.
Turning to A42U C103A, the self-cleavage came out at 0.91.
The result for A42G G58A reads 0; that for A43C A77U, 1.39; that for A43G A50U, 0.64.
Turning to A43G G126A, the self-cleavage worked out at 1.16.
With A42U A138G, the self-cleavage came to 1.28.
As for A42U U73C, the figure is 1.56.
The result for A42U U73G reads 0.95; that for A42G U85C, 0.38.
As for A42G U85G, the figure is 0.26; as for U45A A77U, 1.56; as for U45C A79U, 1.92.
Take U45C A79G: the self-cleavage came out at 1.15.
The result for A42U A79G reads 1.16; that for A42G G72U, 1.38.
As for A42G G72A, the self-cleavage came out at 1.11.
Regarding U45A A64G, the self-cleavage was determined as 0.57.
In the case of A42U G55U, the self-cleavage is 0.1.
With A42U U112C, the self-cleavage is 1.08.
In the case of A42U U112A, the self-cleavage amounted to 1.15.
As for A43U A129U, the figure is 1.22.
As for A43U U73A, the figure is 0.93; as for A43U U73C, 1.79.
On to A43G G106A, for which the self-cleavage worked out at 1.36.
U45A U102C: the self-cleavage came out at 1.45.
As for U45A U102A, the figure is 1.36; as for U45A U102G, 0; as for A43G U87C, 0.32.
Consider A43G C103U, for which the self-cleavage was 1.25.
Turning to U45C A117G, the self-cleavage came to 0.
As for G44A A59G, the figure is 0.03; as for A42G U46C, 1.49.
On to U45A A138U, for which the self-cleavage is 1.31.
In the case of U45A A138G, the self-cleavage is 1.32.
As for A43U C103U, the self-cleavage came out at 1.09.
Take A43C A65G: the self-cleavage turned out to be 0.
As to A42U U100C, the self-cleavage was 1.32.
The result for A42U U100A reads 0.62; that for A43G G127C, 0.77; that for A43G G127A, 0.98.
For A43G A107U, the self-cleavage was found to be 0.7.
The result for A43G A107C reads 1.17; that for A43G A107G, 1.5; that for A43G G70U, 0.15.
As for A43G G70A, the figure is 0.11.
As to A42G U100A, the self-cleavage is 1.28.
As for A42G U100C, the self-cleavage was found to be 1.54.
Consider A43U C90A, for which the self-cleavage turned out to be 0.07.
The result for A42G U73A reads 1.52; that for G44A A129U, 1.43.
As for U45A A136U, the figure is 1.9; as for U45A G72A, 0.95.
As for A42G U108C, the figure is 1.55; as for A42U U52A, 1.2.
With G44U A78G, the self-cleavage came out at 1.68.
Consider A43G G105U, for which the self-cleavage amounted to 1.65.
The result for A42G U112A reads 2.01.
As for U45A A79G, the self-cleavage amounted to 1.39.
As for G44C U45C, the figure is 1.02; as for G44A U100A, 0.85.
The result for U45A C71U reads 0.08.
The result for A43U G72A reads 1.38; that for A42U U81C, 1.28; that for A43U G135U, 1.43.
As to U45A U46G, the self-cleavage came out at 1.29.
The result for U45C A69G reads 0.31; that for U45C A69U, 0.03.
As for G44C U112C, the figure is 1.18; as for A42U C66A, 0.03.
As for A42G U130C, the figure is 1.57.
Turning to A42G U130A, the self-cleavage came out at 1.47.
As to A43C A78U, the self-cleavage amounted to 2.11.
On to G44A A117G, for which the self-cleavage amounted to 1.21.
The result for A42U A57U reads 0.04; that for A42U A57G, 0.63.
As for U45A G105A, the figure is 1.56.
The result for U45C C71A reads 0.15.
Regarding U45C C71U, the self-cleavage came out at 0.98.
As for A42U A124U, the figure is 1.09; as for A43G C113U, 1.12.
Take A42G U102A: the self-cleavage is 1.38.
As for U45C A121U, the figure is 1.13; as for U45C A121G, 1.71; as for A43G G86U, 0.03.
As for A43G G86A, the figure is 0.06.
The result for U45A U115G reads 1.17; that for U45A U115C, 1.51.
Consider U45C C90U, for which the self-cleavage stood at 0.08.
In the case of A43U U112C, the self-cleavage was 1.48.
For the variant A43U U108A, the self-cleavage was 1.46.
As for A43U U108C, the figure is 1.08.
As for A42G U109C, the figure is 1.24; as for A42G U109G, 0.66; as for A42G U109A, 1.43.
As for A42G U62A, the self-cleavage stood at 0.06.
The result for A42U C128G reads 0.87; that for U45A U81C, 1.92.
Take A43G A140U: the self-cleavage worked out at 1.19.
In the case of A43G A138G, the self-cleavage came to 1.34.
As for A43U A69G, the figure is 0.59.
As to U45A A78G, the self-cleavage turned out to be 1.11.
As for A42G U115A, the figure is 1.24; as for G44A U47C, 1.51.
On to G44A A67G, for which the self-cleavage was determined as 0.37.
As to U45A C95U, the self-cleavage was found to be 0.18.
As to A42U U109A, the self-cleavage is 1.39.
In the case of A43U U109A, the self-cleavage came out at 1.38.
Regarding A43U U109C, the self-cleavage came to 1.32.
For A43G U134A, the self-cleavage amounted to 0.89.
For G44U U115A, the self-cleavage turned out to be 1.17.
The result for U45A A140G reads 1.32; that for A43G G144A, 1.39.
U45A G74U: the self-cleavage was 1.59.
